Read-outs that look alike come from different tables or passages of the source.
Key:
[1] = molecular target: T1, N-HisPurβ (Purine-rich element binding protein B) (UniProt O35295 1-324); experiment: competition
T1 sequence: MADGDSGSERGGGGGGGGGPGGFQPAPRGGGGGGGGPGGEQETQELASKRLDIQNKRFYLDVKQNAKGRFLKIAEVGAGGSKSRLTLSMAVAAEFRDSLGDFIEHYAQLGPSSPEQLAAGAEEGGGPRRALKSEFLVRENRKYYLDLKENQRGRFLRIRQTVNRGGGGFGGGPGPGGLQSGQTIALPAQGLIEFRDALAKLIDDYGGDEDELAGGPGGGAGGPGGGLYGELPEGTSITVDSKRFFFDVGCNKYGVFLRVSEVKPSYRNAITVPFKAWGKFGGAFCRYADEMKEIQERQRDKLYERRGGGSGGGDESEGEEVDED

[2] = molecular target: T1, N-HisPurβ (Purine-rich element binding …); experiment: competition; remark: listed apart in the source
[3] = molecular target: T1, N-HisPurβ (Purine-rich element binding …); experiment: competition; remark: listed apart in the source
[4] = molecular target: T1, N-HisPurβ (Purine-rich element binding …); experiment: competition; remark: listed apart in the source
[5] = molecular target: T1, N-HisPurβ (Purine-rich element binding …); experiment: competition; remark: listed apart in the source
[6] = molecular target: T1, N-HisPurβ (Purine-rich element binding …); experiment: competition; remark: listed apart in the source
[7] = molecular target: T1, N-HisPurβ (Purine-rich element binding …); experiment: EMSA

**Q.** Which binding signal [1] does the source give for TTTTTTTGAACAGAGGAATGCAGTTTTTTTTA (ssDNA) [PE32-F-35T7] here?
**A.** Its binding signal is > 50 fold IC50 increase vs PE32-F.

**Q.** Does TTTTTTTTTTTTTTTTTTTTTTTTTTTTTTTT (ssDNA) [dT32] bind [2]?
**A.** Result: no binding

**Q.** Does TTTTTTTGAACAGTTTTTTTCAGTTTTTTTTA (ssDNA) [PE32-F-3I5T7] bind [3]?
**A.** Result: no binding

**Q.** Does GGGAGCAGAACAGTTTTTTTCAGTGGAAGAGA (ssDNA) [PE32-F-IT7] bind [4]?
**A.** Result: binds

**Q.** Does GGGAGCAGAACAGAGGAATGCAGTTTTTTTTA (ssDNA) [PE32-F-3T7] bind [4]?
**A.** Result: binds

**Q.** How did the binding signal [5] turn out when TTTTTTTGAACAGAGGAATGCAGTGGAAGAGA (ssDNA) [PE32-F-5T7] was run?
**A.** The binding signal was ~4 fold IC50 increase vs PE32-F.

**Q.** With GGGAGCAGAACAGAGGAATGCAGTGGAAGAGA (ssDNA) [PE32-F (PE32-F*, PE32-bF, PE32-F-3FLC)] as the binder, how does the binding signal [6] read?
**A.** The binding signal was 1 fold IC50 (reference).

**Q.** What about the Kd [7] of the same binder?
**A.** Its Kd is ~0.3 nM.
